Assays:
[1] = biological target: T1, human PD-1 expressed on the surface of cells (NSO cells expressing human PD-1; MNFAT-luc2/PD-1 Jurkat cells) (human, UniProt Q15116 21-288); assay: FACS saturation binding to NSO cells expressing PD-1; SM; SD 0.4324
T1 construct: also called cell surface PD-1; PDCD1 transfected NSO cells expressing PD-1

[2] = biological target: T2, human LAG-3 expressed on NSO cells (human, UniProt P18627 29-525); assay: FACS saturation binding to NSO cells expressing LAG-3; SM; SD 0.2231
T2 sequence: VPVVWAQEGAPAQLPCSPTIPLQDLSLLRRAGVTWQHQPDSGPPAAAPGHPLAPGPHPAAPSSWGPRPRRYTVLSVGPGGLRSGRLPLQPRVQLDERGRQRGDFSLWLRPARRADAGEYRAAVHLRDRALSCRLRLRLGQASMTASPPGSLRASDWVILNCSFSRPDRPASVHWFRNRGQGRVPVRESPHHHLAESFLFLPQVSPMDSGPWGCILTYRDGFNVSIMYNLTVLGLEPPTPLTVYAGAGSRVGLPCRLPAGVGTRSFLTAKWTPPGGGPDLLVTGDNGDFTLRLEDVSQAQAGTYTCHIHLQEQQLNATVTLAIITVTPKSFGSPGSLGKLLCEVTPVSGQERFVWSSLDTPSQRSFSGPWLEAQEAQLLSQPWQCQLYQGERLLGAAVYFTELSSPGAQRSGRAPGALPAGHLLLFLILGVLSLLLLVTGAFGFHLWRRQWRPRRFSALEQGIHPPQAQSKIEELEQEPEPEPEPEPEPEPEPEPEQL

[3] = biological target: T1, human PD-1 expressed on the surface of …; assay: FACS: inhibition of sPD-L1 binding to PD-1 on NSO cells; SM; SD 0.1485
[4] = biological target: T1, human PD-1 expressed on the surface of …; assay: FACS: inhibition of sPD-L2 binding to PD-1 on NSO cells; SM; SD 0.4285
[5] = biological target: T3, biotinylated-soluble human LAG-3-Fc fusion protein (human, UniProt P18627 23-450, biotinylated (site not stated)); assay: FACS: inhibition of shLAG-3-Fc binding to MHC II on Daudi cells (column head prints EC50); SM; SD 1.6465
T3 construct: whole entry named; also called shLAG-3; shLAG-3-Fc; not shown: Fc
T3 sequence: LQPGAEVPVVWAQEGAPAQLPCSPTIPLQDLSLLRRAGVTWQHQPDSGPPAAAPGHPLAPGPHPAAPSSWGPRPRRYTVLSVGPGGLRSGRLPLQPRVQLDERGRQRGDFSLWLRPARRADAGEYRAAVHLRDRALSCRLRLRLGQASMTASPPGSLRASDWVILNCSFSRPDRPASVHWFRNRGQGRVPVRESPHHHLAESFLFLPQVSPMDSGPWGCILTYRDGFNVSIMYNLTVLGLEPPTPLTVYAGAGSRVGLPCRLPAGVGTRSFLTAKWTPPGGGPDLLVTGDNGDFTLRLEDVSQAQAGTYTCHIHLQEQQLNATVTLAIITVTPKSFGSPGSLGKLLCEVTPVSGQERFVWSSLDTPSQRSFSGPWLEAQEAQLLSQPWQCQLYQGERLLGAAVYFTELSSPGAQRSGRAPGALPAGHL

[6] = biological target: T1, human PD-1 expressed on the surface of …; assay: FACS: inhibition of sPD-L1 binding to PD-1 on NSO cells; SM; SD 0.0007
[7] = biological target: T1, human PD-1 expressed on the surface of …; assay: FACS: inhibition of sPD-L2 binding to PD-1 on NSO cells; SM; SD 0.3154
[8] = biological target: T1, human PD-1 expressed on the surface of …; assay: FACS saturation binding to NSO cells expressing PD-1; single experiment
[9] = biological target: T2, human LAG-3 expressed on NSO cells; assay: FACS saturation binding to NSO cells expressing LAG-3; single experiment
[10] = biological target: T3, biotinylated-soluble human LAG-3-Fc …; assay: FACS: inhibition of shLAG-3-Fc binding to MHC II on Daudi cells (column head prints EC50); SM; SD 0.1104
[11] = biological target: T1, human PD-1 expressed on the surface of …; assay: FACS saturation binding to NSO cells expressing PD-1; SM; SD 0.3958
[12] = biological target: T4, soluble human PD-1 (the extracellular domain of human PD-1 fused to a His tag) (human, UniProt Q15116 25-170); assay: Biacore, mAb captured on F(ab)2 goat anti-human Fc, analyte shPD-1 His
T4 construct: also called shPD-1 His; shPD-1-His; not shown: His tag

[13] = biological target: T1, human PD-1 expressed on the surface of …; assay: FACS: inhibition of sPD-L1 binding to PD-1 on NSO cells; SM; SD 0.2337
[14] = biological target: T1, human PD-1 expressed on the surface of …; assay: FACS: inhibition of sPD-L2 binding to PD-1 on NSO cells; SM; SD 0.2893
[15] = biological target: soluble cynomolgus monkey PD-1 (scyno PD-1 hFc) cleaved to remove Fc portion (cynomolgus monkey, UniProt B0LAJ3 25-170); assay: Biacore, mAb captured on F(ab)2 goat anti-human Fc, analyte scyno PD-1 hFc cleaved of Fc
[16] = biological target: T1, human PD-1 expressed on the surface of …; assay: FACS saturation binding on NSO cells expressing human PD-1, goat anti-human-APC, MFI, 1:4 dilutions
[17] = biological target: T1, human PD-1 expressed on the surface of …; assay: FACS blocking on NSO cells expressing human PD-1, 1:4 dilutions, MFI; blocked ligand: biotinylated sPD-L1, streptavidin-PE
[18] = biological target: T1, human PD-1 expressed on the surface of …; assay: FACS blocking on NSO cells expressing human PD-1, 1:4 dilutions, MFI; blocked ligand: biotinylated sPD-L2, streptavidin-PE

T1 sequence (Q15116 21-288): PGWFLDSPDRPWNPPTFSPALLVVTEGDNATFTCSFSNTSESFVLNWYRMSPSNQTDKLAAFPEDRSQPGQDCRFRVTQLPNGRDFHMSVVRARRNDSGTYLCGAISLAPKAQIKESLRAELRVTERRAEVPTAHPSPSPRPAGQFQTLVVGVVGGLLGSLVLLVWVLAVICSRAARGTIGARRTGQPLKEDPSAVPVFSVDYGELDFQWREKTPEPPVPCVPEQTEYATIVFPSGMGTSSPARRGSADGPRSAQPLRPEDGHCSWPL
Sequence of soluble cynomolgus monkey PD-1 (scyno PD-1 hFc) cleaved to remove Fc portion (B0LAJ3 entry or part of it limits assumed): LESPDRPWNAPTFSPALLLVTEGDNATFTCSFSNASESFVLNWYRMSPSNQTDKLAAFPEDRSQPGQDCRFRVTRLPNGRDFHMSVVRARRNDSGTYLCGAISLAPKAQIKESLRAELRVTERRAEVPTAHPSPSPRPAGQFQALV
T4 sequence (Q15116 25-170): as the sequence (B0LAJ3 entry or part of it limits assumed) above, with E2D, A10P, L19V, A35T, R75Q, A144T counted along it

B1: DART A (bispecific antibody, human IgG4 S228P)
chain 1: DIVMTQTPLSLSVTPGQPASISCKSSQSLLHSDAKTYLNWLLQKPGQPPERLIYLVSELDSGVPDRFSGSGSGTDFTLKISRVEAEDVGVYYCWQGTHFPYTFGGGTKVEIKGGGSGGGGQVQLVQSGAEVKKPGASVKVSCKASGYSFTSYWMNWVRQAPGQGLEWIGVIHPSDSETWLDQKFKDRVTITVDKSTSTAYMELSSLRSEDTAVYYCAREHYGTSPFAYWGQGTLVTVSSGGCGGGEVAACEKEVAALEKEVAALEKEVAALEKESKYGPPCPPCPAPEFLGGPSVFLFPPKPKDTLYITREPEVTCVVVDVSQEDPEVQFNWYVDGVEVHNAKTKPREEQFNSTYRVVSVLTVLHQDWLNGKEYKCKVSNKGLPSSIEKTISKAKGQPREPQVYTLPPSQEEMTKNQVSLTCLVKGFYPSDIAVEWESNGQPENNYKTTPPVLDSDGSFFLYSRLTVDKSRWQEGNVFSCSVMHEALHNHYTQKSLSLSLG
chain 2: EIVLTQSPATLSLSPGERATLSCRASESVDNYGMSFMNWFQQKPGQPPKLLIHAASNQGSGVPSRFSGSGSGTDFTLTISSLEPEDFAVYFCQQSKEVPYTFGGGTKVEIKGGGSGGGGQVQLVQSGAEVKKPGASVKVSCKASGYTFTNYGMNWVRQAPGQGLEWMGWINTYTGESTYADDFEGRFVFSMDTSASTAYLQISSLKAEDTAVYYCARESLYDYYSMDYWGQGTTVTVSSGGCGGGKVAACKEKVAALKEKVAALKEKVAALKE
[1]
  EC50: 1930 nM
[2]
  EC50: 840 nM
[3]
  IC50: 964 nM
[4]
  IC50: 1630 nM
[5]
  IC50: 1380 nM

B2: DART B (bispecific antibody, human IgG4 S228P)
chain 1: DIVMTQTPLSLSVTPGQPASISCKSSQSLLHSDGKTYLNWLLQKPGQPPERLIYLVSELDSGVPDRFSGSGSGTDFTLKISRVEAEDVGVYYCWQGTHFPYTFGGGTKVEIKGGGSGGGGQVQLVQSGAEVKKPGASVKVSCKASGYSFTSYWMNWVRQAPGQGLEWIGVIHPSDSETWLDQKFKDRVTITVDKSTSTAYMELSSLRSEDTAVYYCAREHYGTSPFAYWGQGTLVTVSSGGCGGGEVAACEKEVAALEKEVAALEKEVAALEKESKYGPPCPPCPAPEFLGGPSVFLFPPKPKDTLYITREPEVTCVVVDVSQEDPEVQFNWYVDGVEVHNAKTKPREEQFNSTYRVVSVLTVLHQDWLNGKEYKCKVSNKGLPSSIEKTISKAKGQPREPQVYTLPPSQEEMTKNQVSLTCLVKGFYPSDIAVEWESNGQPENNYKTTPPVLDSDGSFFLYSRLTVDKSRWQEGNVFSCSVMHEALHNHYTQKSLSLSLG
chain 2: EIVLTQSPATLSLSPGERATLSCRASESVDNYGMSFMNWFQQKPGQPPKLLIHAASNQGSGVPSRFSGSGSGTDFTLTISSLEPEDFAVYFCQQSKEVPYTFGGGTKVEIKGGGSGGGGQVQLVQSGAEVKKPGASVKVSCKASGYTFTNYGMNWVRQAPGQGLEWMGWINTYTGESTYADDFEGRFVFSMDTSASTAYLQISSLKAEDTAVYYCARESLYDYYSMDYWGQGTTVTVSSGGCGGGKVAACKEKVAALKEKVAALKEKVAALKE
[6]
  IC50: 1150 nM
[7]
  IC50: 2120 nM
[8]
  EC50: 1760 nM
  EC90: 12300 nM
[9]
  EC50: 1080 nM
[10]
  IC50: 408 nM

B3: hPD-1 mAb 7 (1.2) IgG1 (AA) (antibody)
heavy: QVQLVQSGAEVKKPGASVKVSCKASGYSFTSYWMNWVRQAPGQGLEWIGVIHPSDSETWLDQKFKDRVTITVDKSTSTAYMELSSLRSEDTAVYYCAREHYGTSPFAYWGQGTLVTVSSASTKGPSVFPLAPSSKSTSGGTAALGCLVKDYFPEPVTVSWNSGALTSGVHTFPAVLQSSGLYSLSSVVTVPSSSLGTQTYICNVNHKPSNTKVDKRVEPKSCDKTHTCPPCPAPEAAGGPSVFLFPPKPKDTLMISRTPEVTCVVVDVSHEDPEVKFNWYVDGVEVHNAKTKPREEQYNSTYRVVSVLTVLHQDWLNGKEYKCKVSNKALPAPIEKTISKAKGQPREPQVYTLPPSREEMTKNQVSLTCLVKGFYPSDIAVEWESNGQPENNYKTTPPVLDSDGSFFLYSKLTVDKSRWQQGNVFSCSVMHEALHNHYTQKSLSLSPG
light: EIVLTQSPATLSLSPGERATLSCRASESVDNYGMSFMNWFQQKPGQPPKLLIHAASNQGSGVPSRFSGSGSGTDFTLTISSLEPEDFAVYFCQQSKEVPYTFGGGTKVEIKRTVAAPSVFIFPPSDEQLKSGTASVVCLLNNFYPREAKVQWKVDNALQSGNSQESVTEQDSKDSTYSLSSTLTLSKADYEKHKVYACEVTHQGLSSPVTKSFNRGEC
notes: also called h1PD-1 mAb 7(1.2) IgG1 (AA)
[11]
  EC50: 1090 nM
[12]
  Kd: 1.5 nM
[13]
  IC50: 732 nM
[14]
  IC50: 977 nM
[15]
  Kd: 4.9 nM
[16]
  EC50 (read off the curve): ~0.08 µg/mL
[17]
  IC50 (read off the curve): ~0.01 ug/test
[18]
  IC50 (read off the curve): ~0.02 ug/test

From patent US12534531 (MacroGenics, dated 2026)
